Measurements published in patent publication US20130274124A1.

Legend:
Assay in all cases: cell-based or functional assay
[1] = target: collagen II/galectin-4 (hit ECM combination) (human) (UniProt P02458)
[2] = target: collagen IV/galectin-8 (hit ECM combination) (human) (UniProt P02462)
[3] = target: collagen I/laminin (hit ECM combination) (human) (UniProt P02452)

Measured: reduction of cellular attachment after blocking the integrin with an antibody

Sequence of collagen IV/galectin-8 (hit ECM combination) (human) (P02462 173-1669 P555T limits assumed, chain 1 of 2): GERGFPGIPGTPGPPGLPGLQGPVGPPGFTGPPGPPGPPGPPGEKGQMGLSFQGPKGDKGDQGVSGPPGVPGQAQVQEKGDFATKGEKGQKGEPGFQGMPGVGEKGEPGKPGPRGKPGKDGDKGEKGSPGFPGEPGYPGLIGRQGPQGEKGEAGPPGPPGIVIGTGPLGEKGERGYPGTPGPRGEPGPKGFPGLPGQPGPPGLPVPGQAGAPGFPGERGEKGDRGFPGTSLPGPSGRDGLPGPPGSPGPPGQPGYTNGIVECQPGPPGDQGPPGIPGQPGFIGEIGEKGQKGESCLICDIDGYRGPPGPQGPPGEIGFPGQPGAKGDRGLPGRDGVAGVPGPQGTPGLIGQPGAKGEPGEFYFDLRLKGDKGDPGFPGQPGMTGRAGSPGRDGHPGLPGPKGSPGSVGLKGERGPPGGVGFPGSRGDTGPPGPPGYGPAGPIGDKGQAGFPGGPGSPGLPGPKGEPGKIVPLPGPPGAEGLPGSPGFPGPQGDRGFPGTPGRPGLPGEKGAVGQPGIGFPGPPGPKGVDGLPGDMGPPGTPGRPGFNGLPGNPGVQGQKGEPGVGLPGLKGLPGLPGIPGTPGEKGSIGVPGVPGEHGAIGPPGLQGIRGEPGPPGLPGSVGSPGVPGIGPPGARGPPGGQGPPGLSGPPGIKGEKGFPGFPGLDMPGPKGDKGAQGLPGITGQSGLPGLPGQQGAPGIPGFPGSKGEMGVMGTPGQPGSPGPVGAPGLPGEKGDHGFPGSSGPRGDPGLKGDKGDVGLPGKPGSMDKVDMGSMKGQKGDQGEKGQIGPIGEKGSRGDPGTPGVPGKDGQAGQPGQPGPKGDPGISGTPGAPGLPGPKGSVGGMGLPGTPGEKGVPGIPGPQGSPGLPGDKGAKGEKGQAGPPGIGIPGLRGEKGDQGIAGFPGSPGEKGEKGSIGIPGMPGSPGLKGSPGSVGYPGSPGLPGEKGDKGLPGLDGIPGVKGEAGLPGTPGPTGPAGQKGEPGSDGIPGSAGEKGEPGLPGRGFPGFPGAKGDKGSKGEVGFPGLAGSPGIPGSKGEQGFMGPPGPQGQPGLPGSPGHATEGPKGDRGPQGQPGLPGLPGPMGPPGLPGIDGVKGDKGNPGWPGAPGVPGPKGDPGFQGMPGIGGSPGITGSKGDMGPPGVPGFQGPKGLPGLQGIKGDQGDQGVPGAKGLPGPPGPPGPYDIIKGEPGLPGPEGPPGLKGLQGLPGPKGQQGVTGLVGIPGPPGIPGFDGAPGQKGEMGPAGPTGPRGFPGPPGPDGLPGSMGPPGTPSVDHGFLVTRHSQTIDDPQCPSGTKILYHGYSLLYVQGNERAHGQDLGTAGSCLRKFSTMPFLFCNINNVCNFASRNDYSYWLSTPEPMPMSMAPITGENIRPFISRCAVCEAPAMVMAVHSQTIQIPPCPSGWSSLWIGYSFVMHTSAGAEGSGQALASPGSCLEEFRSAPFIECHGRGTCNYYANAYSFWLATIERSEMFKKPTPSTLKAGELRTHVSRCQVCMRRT
Sequence of collagen IV/galectin-8 (hit ECM combination) (human) (chain, as listed by the source limits assumed, chain 2 of 2): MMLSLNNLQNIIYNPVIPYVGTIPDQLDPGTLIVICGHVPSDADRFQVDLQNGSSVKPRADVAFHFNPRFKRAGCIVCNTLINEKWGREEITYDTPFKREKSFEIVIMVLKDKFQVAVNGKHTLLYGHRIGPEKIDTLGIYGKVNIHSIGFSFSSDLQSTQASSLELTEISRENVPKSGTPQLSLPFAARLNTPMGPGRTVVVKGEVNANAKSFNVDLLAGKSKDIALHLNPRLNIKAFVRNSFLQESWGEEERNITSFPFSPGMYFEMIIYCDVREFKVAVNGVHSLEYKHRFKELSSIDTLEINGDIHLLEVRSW
Sequence of collagen I/laminin (hit ECM combination) (human) (P02452 162-1218 limits assumed, chain 1 of 2): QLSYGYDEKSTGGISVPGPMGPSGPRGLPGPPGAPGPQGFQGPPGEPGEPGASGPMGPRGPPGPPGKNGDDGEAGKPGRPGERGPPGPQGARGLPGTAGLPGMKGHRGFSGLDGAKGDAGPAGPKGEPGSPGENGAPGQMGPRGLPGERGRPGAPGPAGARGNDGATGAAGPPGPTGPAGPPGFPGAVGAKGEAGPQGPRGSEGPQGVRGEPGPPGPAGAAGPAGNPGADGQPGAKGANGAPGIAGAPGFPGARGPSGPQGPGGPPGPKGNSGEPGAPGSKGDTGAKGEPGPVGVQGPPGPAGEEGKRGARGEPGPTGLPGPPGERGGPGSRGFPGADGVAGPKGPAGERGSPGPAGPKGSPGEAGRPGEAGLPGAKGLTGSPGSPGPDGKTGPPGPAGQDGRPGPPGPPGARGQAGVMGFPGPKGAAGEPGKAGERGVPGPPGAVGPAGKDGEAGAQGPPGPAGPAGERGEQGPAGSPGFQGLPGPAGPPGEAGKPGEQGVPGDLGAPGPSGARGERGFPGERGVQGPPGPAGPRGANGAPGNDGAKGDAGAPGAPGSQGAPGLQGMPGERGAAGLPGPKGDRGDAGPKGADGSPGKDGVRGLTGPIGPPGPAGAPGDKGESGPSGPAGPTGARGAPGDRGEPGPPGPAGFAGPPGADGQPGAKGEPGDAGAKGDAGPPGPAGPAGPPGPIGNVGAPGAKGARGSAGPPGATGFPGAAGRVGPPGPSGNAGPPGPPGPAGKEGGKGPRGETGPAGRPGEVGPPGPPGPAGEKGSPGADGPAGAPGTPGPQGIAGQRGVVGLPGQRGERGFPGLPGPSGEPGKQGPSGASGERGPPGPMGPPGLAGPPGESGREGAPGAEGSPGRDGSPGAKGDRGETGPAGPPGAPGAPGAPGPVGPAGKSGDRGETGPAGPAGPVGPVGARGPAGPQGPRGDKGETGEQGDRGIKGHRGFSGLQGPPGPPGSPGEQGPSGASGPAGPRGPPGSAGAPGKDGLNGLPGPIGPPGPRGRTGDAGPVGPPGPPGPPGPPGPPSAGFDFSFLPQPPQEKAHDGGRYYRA
Sequence of collagen I/laminin (hit ECM combination) (human) (chain, as listed by the source limits assumed, chain 2 of 2): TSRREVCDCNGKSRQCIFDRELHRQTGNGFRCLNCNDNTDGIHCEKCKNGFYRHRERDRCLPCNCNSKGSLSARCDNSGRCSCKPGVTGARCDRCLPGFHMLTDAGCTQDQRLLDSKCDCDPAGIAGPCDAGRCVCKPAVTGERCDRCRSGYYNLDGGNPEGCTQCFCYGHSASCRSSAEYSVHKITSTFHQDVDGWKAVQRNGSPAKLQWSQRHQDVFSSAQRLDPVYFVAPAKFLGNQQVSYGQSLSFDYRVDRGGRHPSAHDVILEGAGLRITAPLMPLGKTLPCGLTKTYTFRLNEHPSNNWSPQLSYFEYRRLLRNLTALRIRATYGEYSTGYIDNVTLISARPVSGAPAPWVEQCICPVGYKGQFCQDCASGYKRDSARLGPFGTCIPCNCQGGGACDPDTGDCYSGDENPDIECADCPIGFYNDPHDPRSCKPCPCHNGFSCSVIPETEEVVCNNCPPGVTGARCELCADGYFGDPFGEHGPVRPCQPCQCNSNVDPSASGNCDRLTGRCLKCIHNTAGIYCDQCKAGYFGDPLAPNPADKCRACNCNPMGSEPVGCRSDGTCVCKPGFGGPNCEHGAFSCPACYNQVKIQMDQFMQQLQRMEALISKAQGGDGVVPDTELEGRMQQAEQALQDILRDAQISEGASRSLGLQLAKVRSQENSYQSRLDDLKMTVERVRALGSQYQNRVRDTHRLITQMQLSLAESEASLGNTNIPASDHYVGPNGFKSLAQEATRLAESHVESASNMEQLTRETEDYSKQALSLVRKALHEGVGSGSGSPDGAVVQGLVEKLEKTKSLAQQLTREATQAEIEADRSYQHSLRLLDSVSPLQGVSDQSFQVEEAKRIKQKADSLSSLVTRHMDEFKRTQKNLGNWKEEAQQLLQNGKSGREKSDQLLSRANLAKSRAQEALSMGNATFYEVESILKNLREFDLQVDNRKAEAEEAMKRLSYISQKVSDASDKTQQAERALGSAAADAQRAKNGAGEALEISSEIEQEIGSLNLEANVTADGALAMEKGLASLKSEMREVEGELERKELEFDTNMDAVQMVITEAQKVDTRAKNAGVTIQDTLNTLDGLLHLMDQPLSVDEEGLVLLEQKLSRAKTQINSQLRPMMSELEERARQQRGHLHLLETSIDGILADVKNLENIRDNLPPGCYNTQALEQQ

α1 integrin (from UniProt P56199 29-1179) (receptor)
50%: [1] | [2] | [3]
